The conditions of series [1]: human, in vivo.
Protocol: (§1) Compound B (as described in Example 2) is a peptide conjugate of doxorubicin (Dox) that is cleaved by PSA at prostate tumor cells to leucine-dox (Leu-dox) and Dox. Thirty-three patients with advanced hormone refractory prostate cancer were treated with Compound B. Nineteen patients were initially treated at escalating dose levels of 20 (n=1), 40 (n=3), 80 (n=4), 160 (n=2), 225 (n=6), and 315 mg/m^2 (n=2) in the phase I portion of the trial. An additional 14 patients were treated with 225 mg/m^2 with prednisone.
Series [2] is described as follows: Clinical trial of Compound B: tolerability and dose limiting toxicity.
Protocol: as §1
For series [3] the following is noted: human, in vivo. This is another data set of the same source.
Protocol: as §1
Series [4] is described as follows: clinical. The following applies: male, human, in vivo, 225 mg/m2.
Protocol: as §1

Numbered stars: 1 amine (or outer) side, 2 acyl side, 3 side chain; on linkers, the order of the positions; unused ones are H or OH. Square brackets hold non-standard residues; d marks the D form. Peptide text beside a SMILES is read from it. * marks the point of attachment. X1 = COc1cccc2c1C(=O)c1c(O)c3c(c(O)c1C2=O)C[C@@](O)(C(=O)CO)C[C@@H]3OC1CC(N*)C(O)C(C)O1; Glutaryl = O=C(CCCC(=O)[*:2])[*:1]; Hyp = O=C(O)[C@@H]1C[C@@H](O)CN1; Chg = N[C@H](C(=O)O)C1CCCCC1

In general, AUC refers to the area under the concentration-time curve, a measure of exposure. Higher therefore signals more exposure.

As to `COc1cccc2c1C(=O)c1c(O)c3c(c(O)c1C2=O)C[C@@](O)(C(=O)CO)C[C@@H]3O[C@H]1C[C@H](NC(=O)[C@@H](N)CC(C)C)[C@H](O)[C@H](C)O1` [Leu-Dox, leucine-dox], the “mean AUC” value in series [1] (225 mg/m2) stood at 4 µM·h.
As for `COc1cccc2c1C(=O)c1c(O)c3c(c(O)c1C2=O)C[C@@](O)(C(=O)CO)C[C@@H]3OC1CC(NC(=O)[C@H](CC(C)C)NC(=O)[C@H](CO)NC(=O)[C@H](CCC(N)=O)NC(=O)[C@@H](NC(=O)[C@H](CO)NC(=O)[C@H](C)NC(=O)[C@@H]2C[C@@H](O)CN2C(=O)CCCC(=O)O)C2CCCCC2)C(O)C(C)O1` (stereo partly drawn) [Compound B, [N-Glutaryl-(4-trans-L-Hyp)]-Ala-Ser-Chg-Gln-Ser-Leu-Dox] (Glutaryl-[Hyp]AS[Chg]QSL-X1; N-terminus and C-terminus assumed), the “metabolism in PK studies” value in series [1] was “metabolized to Leu-dox and Dox”. Also, the “patients with dose limiting neutropenia” value in series [2] (315 mg/m^2 dose level) is listed as 2 patients. In addition, the tolerability entry in series [2] (33 patients with advanced hormone refractory prostate cancer) is listed as “generally well tolerated”. Besides, the “recommended phase II dose” value in series [2] (phase I dose escalation 20-315 mg/m^2) came to 225 mg/m^2. For the same compound, the “patients experiencing grade 3 fatigue” value in series [3] was “two”. The area under the curve (AUC) in series [4] stood at 6 µM·h.

(Values after patent publication US20040058857A1, “Method of treating cancer” (priority 2003, published 2004).)
